# Source: patent US20260069656A1, “Nutritive Polypeptides and Formulations Thereof, and Methods of Production and Use Thereof” (Axcella Health Inc., priority 2013, published 2026)
# Assays:
# insulin = test: Plasma insulin after acute oral dosing in rats, Rat Insulin ELISA; type: in vivo; settings: Rat Insulin ELISA kit; oral gavage
# Description: Animals were treated and acutely dosed with various test articles as part of pharmacokinetic rodent experiments according to methods described herein. Unless otherwise stated all dosing was at 2.85 g/kg body weight. All treatment groups except for SEQID-00240 which had n=5 rats, and SEQID-00587 which had n=3, contained n=4 rats.
# An Ultra-Sensitive Rat Insulin ELISA Kit was obtained from Crystal Chem, Inc. (Catalog number 90060, Downers Grove, IL). Plates were washed using a BioTek ELx50 microplate strip washer (BioTek, Winooski, VT). Absorbance was read on a Synergy Mx monochromator-based microplate reader (BioTek, Winooski, VT). Data was analyzed using Microsoft Excel version 14.0.7128.5000 (Microsoft Corporation, Redmond, WA) and GraphPad Prism version 6.03 for Windows (GraphPad Software, La Jolla, CA).
# The ELISA kit was pre-warmed to room temperature for 30 minutes prior to beginning the assay set up. The standard curve dilutions were prepared in accordance with the manufacturer's instructions for running the assay in Wide Range format. […]
# Anti-Insulin Enzyme Conjugate Working Solution was prepared by combining 2 volumes Anti-Insulin Enzyme Conjugate Stock with 1 volume Enzyme Conjugate Diluent, and mixing by pipetting up and down and gently vortexing. […] The absorbance was read on the Synergy Mx plate reader at 450 nm and 630 nm. […]
# [1] = Thermostability, ProteoStat Thermal Shift Stability Kit, temperature of aggregation; type: physicochemical; settings: pH 7.1; heated from 25° C. to 95° C.
# Description: Thermostability. The thermostability of proteins in a buffer cocktail of Citric Acid and Dibasic Sodium Phosphate over a pH range of 2.8 to 7.1 (preparation described above in Table E31B) was determined using the ProteoStat® Thermal Shift Stability Kit (Enzo Life Sciences) according to the manufacturer's standard protocol. Briefly, protein solutions (˜10 mg/ml) containing 1× ProteoStat TS Detection Reagent were heated from 25° C. to 95° C. at a rate of 0.5° C. per 30 sec using a real-time PCR (rtPCR) thermocycler (BioRad) equipped with a plate reader (SynergyMx, Biotek) while monitoring the fluorescence with a Texas Red filter.
# [2] = Rat pharmacokinetic studies, plasma amino acids by HPLC; settings: oral administration to rats
# Description: Rat pharmacokinetic studies. Male Sprague Dawley rats with indwelling jugular vein cannula (JVC) were purchased from Harlan Laboratories and acclimated to the Test Facility (Agilux Laboratories) for at least two days prior to study initiation. Prior to dose administration animals were fasted overnight (11-13 h) and remained fasted until completion of the study. Test articles were orally administered via a bulb-tipped 18 gauge stainless steel gavage needle attached to a syringe. The weight of all dose syringes were recorded prior to and following dosing to more accurately determine the amount of solution dosed. Serial blood samples (˜300 μL) were collected from the JVC at time 0 (pre-dose) and 0.25, 0.5, 1, 2, and 4 h post-dose. Blood samples were collected into tubes containing the anti-coagulant K2EDTA, a general protease inhibitor cocktail (Sigma P8340, diluted 1:100 in whole blood), and a DPP IV inhibitor (Millipore DPP4, diluted 1:100 in whole blood). Immediately following blood collection tubes were vortexed and stored on wet ice until processing to plasma by centrifugation (3,500 rpm at 5° C.) within 1 h of collection. Plasma samples were then transferred into new tubes and stored at −80° C.
# The concentration of Glu, Ser, His, Gly, Thr, Arg, Ala, Tyr, Val, Met, Phe, Ile, Leu, and Lys in the plasma samples was determined by HPLC amino acid analysis, as described herein. Prior to HPLC amino acid analysis, insoluble particles were removed from plasma samples by centrifugation (1100×g at 4° C.) for 10 min. A 25 μL sample of the soluble fraction was then transferred to a 96-well plate, for some samples an internal standard (Norvaline, Agilent) was added to each plasma sample at final concentration of 0.5 mM.
# [3] = Intact half-life during simulated gastric fluid (SGF) digestion; settings: SGF pH 1.5, pepsin:polypeptide 1:20 w/w, 37° C.; produced in E. coli unless otherwise noted
# Description: Nutritive polypeptide half-life during simulated digestion. One metric for quantifying the breakdown of polypeptides from an intact form to smaller peptides is the intact half-life. In this experiment the nutritive polypeptide was exposed to a series of proteases that are active in the stomach (pepsin) and intestine (trypsin and chymotrypsin), and the presence of intact protein was measured over time. Specifically, the nutritive polypeptide was first treated at a concentration of 2 g/L with simulated gastric fluid (SGF) (0.03 M NaCl, titrated with HCl to pH 1.5 with a final pepsin: polypeptide ratio of 1:20 w/w) at 37° C. Time points were sampled from the reaction and quenched by addition of 0.2 M Na2CO3. […] Time points were sampled from the reaction and quenched by addition of Trypsin/Chymotrypsin Inhibitor (Sigma) solution until 240 min.
# Time point samples were analyzed for intact protein by chip electrophoresis, polyacrylamide gel electrophoresis, or western blot. For chip electrophoresis (Labchip GX II), samples were analyzed using a HT Low MW Protein Express LabChip® Kit (following the manufacturer's protocol). A protein ladder was loaded every 12 samples for molecular weight determination (kDa) and quantification. For polyacrylamide gel electrophoresis, samples (1 μg) were separated on a NuPAGE® Novex® Bis-Tris Precast gel (Life Technologies) according to the manufacturer's protocol. The gel was stained using SimplyBlue™ SafeStain (Invitrogen) and imaged using a Chemidoc XRS+ (BioRad) or transferred onto nitrocellulose membranes using the iBlot® Dry Blotting System (Life Technologies) and iBlot® Western Detection Kit (Life Technologies) according to the manufacturer's protocol. Proteins were detected by blotting with Anti-His [C-term]-HRP antibody diluted 3:5000 in Blok™-PO Blocking Buffer using the SNAP i.d.® Protein Detection System (Millipore) according to the manufacturer's protocol. Blots were treated with Luminata Classico Western HRP Substrate (Millipore) according to the manufacturer's protocol and imaged using chemiluminescent detection on the Molecular Imager® Gel Doc™ XR+ System (Bio-Rad). Quantification of intact protein was determined by densitometry using ImageLab (BioRad). For all analysis methods the relative concentration of the polypeptide at each time point (if detected) was plotted overtime and fit to an exponential curve to calculate the intact half-life.
# Specifically, the t=0 (enzyme-free control) and t=2 min samples from the SGF digest were analyzed for intact protein as described by chip electrophoresis, SDS-PAGE, western blot, and/or LC-MS/MS. Relative quantities of polypeptides at each time point were determined and the percentage of intact protein remaining at t=2 was determined.
# [4] = Solubility of proteins (lyophilized/reconstituted or ultrafiltered); settings: produced in E. coli unless otherwise noted
# Description: Solubility. […] Protein samples were dried by lyophilization on a FreeZone Freeze Dry System (Labconco) using the manufacturer's standard protocol and then resuspended in buffer to the desired concentration. Centrifugal and tangential ultrafiltration were used to selectively remove buffer from the protein sample until the desired concentration was reached. Centrifugal ultrafiltration of protein solutions was performed by centrifugation (10,000×g) of 10 mg of protein in an Amicon centrifugal filter (Millipore) with a molecular weight cutoff of 3 kDa, 10 kDa, or 30 kDa, depending on the protein size, until the desired contrentration was reached. Ultrafiltration of protein solutions was performed on Hydrosart ultrafiltration cassettes (Sartorius Stedim, Bohemia, NY) with a molecular weight cutoff of 3 kDa, 10 kDa, or 30 kDa, depending on the protein size, at a cross flow rate of 12 L/m2/min. For most processes, transmembrane pressure was maintained at 20 psi and performed until the desired contrentration was reached.
# The protein concentration of the above samples was measured by one or a combination of the following methods: Coomassie Plus Protein Assay, absorbance at 280 nm (A280), and total amino acid analysis. Coomassie Plus Protein Assays (Pierce) were performed according to the manufacturer's protocol. Absorbance at 280 nm was measured on a Nanodrop 2000 UV-Vis spectrophotometer. Protein concentration was determined using the A280 value and molar extinction coefficient, which was calculated by primary amino acid sequence using ProtParam (Gasteiger, Elisabeth, et al. The proteomics protocols handbook. Humana Press, 2005. 571-607.). Total amino acids were analyzed by HPLC after acid hydrolysis as described in Henderson, J. W., et al. Agilent Technologies (2010).
substance,measurement,setting,value
"SEQID-00240: nutritive polypeptide naturally produced in Cow, recombinantly expressed in E. coli (DLEGSLEQEKKLRMDLERAKRKLEGDLKLAQESTMDIENDKQQLDEKLKK; listed as Bos taurus)",plasma insulin concentration vs time 0,insulin,statistically significant increase in plasma insulin at 15 and 30 minutes post gavage compared to time 0
same,Tagg (pH 7.1),[1],>95
same,plasma Phe concentration,[2],causing no flux in plasma Phe concentration
same,change in AUC0-4 h for plasma Lys,[2]; doses of Table E33A,increased the change in AUC0-4 h for plasma Lys
same,SGF Half-life (t½),[3],42 s
same,Solubility,[4],163 mg/mL
